Laboratory results published in the Immune Epitope Database (IEDB).
Each block holds one sequence with its values, some of them ahead of it.

How the values were obtained:
[1] = target: HLA-A*02:03; assay: IEDB peptide-MHC binding, purified MHC/competitive/radioactivity; filed as Kd, often an IC50 or EC50 that approximates it; ≥ and ≤ were set here for values at or beyond the usual limits of such assays
[2] = target: HLA-A*02:17; assay: as above
[3] = target: HLA-A*02:01; assay: as above
[4] = target: HLA-B*58:01; assay: as above
[5] = target: HLA-B*51:01; assay: IEDB peptide-MHC binding, purified MHC/direct/fluorescence; filed as Kd, often an IC50 or EC50 that approximates it; ≥ and ≤ were set here for values at or beyond the usual limits of such assays
[6] = target: HLA-B*35:01; assay: IEDB peptide-MHC binding, purified MHC/competitive/radioactivity; filed as Kd, often an IC50 or EC50 that approximates it; ≥ and ≤ were set here for values at or beyond the usual limits of such assays
[7] = target: HLA-B*53:01; assay: as above
[8] = target: HLA-B*07:02; assay: IEDB peptide-MHC binding, purified MHC/direct/fluorescence; filed as Kd, often an IC50 or EC50 that approximates it; ≥ and ≤ were set here for values at or beyond the usual limits of such assays
[9] = target: HLA-B*15:01; assay: as above
[10] = target: HLA-B*46:01; assay: IEDB peptide-MHC binding, purified MHC/competitive/fluorescence; filed as Kd, often an IC50 or EC50 that approximates it; ≥ and ≤ were set here for values at or beyond the usual limits of such assays
[11] = target: HLA-A*69:01; assay: as above
[12] = target: HLA-A*03:01; assay: as above
[13] = target: HLA-A*26:01; assay: as above
[14] = target: HLA-B*27:03; assay: as above
[15] = target: HLA-B*18:01; assay: as above
[16] = target: HLA-A*02:03; assay: as above
[17] = target: HLA-A*02:19; assay: as above
[18] = target: HLA-B*57:01; assay: as above
[19] = target: HLA-A*02:12; assay: as above
[20] = target: HLA-A*68:02; assay: as above
[21] = target: HLA-B*39:01; assay: as above
[22] = target: HLA-A*02:11; assay: as above
[23] = target: HLA-A*02:01; assay: as above
[24] = target: HLA-B*15:01; assay: as above
[25] = target: HLA-A*02:16; assay: as above
[26] = target: HLA-A*02:06; assay: IEDB peptide-MHC binding, purified MHC/competitive/radioactivity; filed as Kd, often an IC50 or EC50 that approximates it; ≥ and ≤ were set here for values at or beyond the usual limits of such assays
[27] = target: HLA-A*32:01; assay: as above
[28] = target: HLA-A*24:03; assay: IEDB peptide-MHC binding, purified MHC/competitive/fluorescence; filed as Kd, often an IC50 or EC50 that approximates it; ≥ and ≤ were set here for values at or beyond the usual limits of such assays
[29] = target: HLA-B*15:17; assay: as above
[30] = target: HLA-A*29:02; assay: as above
[31] = target: HLA-B*51:01; assay: as above
[32] = target: HLA-B*51:01; assay: IEDB peptide-MHC binding, purified MHC/competitive/radioactivity; filed as Kd, often an IC50 or EC50 that approximates it; ≥ and ≤ were set here for values at or beyond the usual limits of such assays; conditions: source organism: Dengue virus 2 Jamaica/1409/1983
[33] = target: HLA-B*08:01; assay: as above
[34] = target: HLA-A*68:02; assay: as above; conditions: source organism: Dengue virus 3 Singapore/8120/1995
[35] = source organism: Dengue virus 1 Brazil/97-11/1997
[36] = source organism: Dengue virus 1 Singapore/S275/1990
[37] = source organism: Dengue virus 4 Philippines/H241/1956
[38] = source organism: West Nile virus
[39] = source organism: Dengue virus 3 Martinique/1243/1999
[40] = source organism: Burkholderia mallei
[41] = source organism: Vibrio cholerae 2740-80
[42] = source organism: Dengue virus 2 Jamaica/1409/1983
[43] = source organism: Cryptosporidium parvum Iowa II
[44] = source organism: Vibrio vulnificus YJ016
[45] = source organism: Brucella suis 1330
[46] = source organism: Dengue virus 1 Nauru/West Pac/1974
[47] = source organism: Escherichia coli F11
[48] = source organism: Dengue virus 3 Singapore/8120/1995
[49] = source organism: Dengue virus 3 China/80-2/1980
[50] = source organism: Vibrio cholerae

Sequence: VLMLVAHYA
Kd [1, 35]: 2.73 nM | Kd [2, 36]: 13200 nM | Kd [3, 36]: 6.67 nM

Sequence: PASAAQRRGR
Kd [4, 37]: 15400 nM

Sequence: IPTAAGKNL
Kd [5, 38]: ≥ 20000 nM

Sequence: MALKLITQF
Kd [4, 39]: 2.16 nM | Kd [6, 39]: 1.25 nM | Kd [7, 39]: 22.4 nM

Sequence: KLAQVRRAM
Kd [8, 40]: 6 nM | Kd ([9]; source organism: Burkholderia mallei ATCC 23344): 27 nM | Kd [5, 40]: ≥ 20000 nM

Sequence: LAVFPAMFW
Kd [10, 41]: ≥ 20000 nM | Kd [11, 41]: ≥ 20000 nM | Kd [12, 41]: ≥ 20000 nM | Kd [13, 41]: ≥ 20000 nM | Kd [14, 41]: ≥ 20000 nM | Kd [15, 41]: ≥ 20000 nM | Kd [16, 41]: ≥ 20000 nM | Kd [17, 41]: ≥ 20000 nM | Kd [18, 41]: 37.9 nM | Kd [19, 41]: ≥ 20000 nM | Kd [20, 41]: ≥ 20000 nM | Kd [21, 41]: ≥ 20000 nM | Kd [22, 41]: ≥ 20000 nM | Kd [23, 41]: ≥ 20000 nM | Kd [24, 41]: ≥ 20000 nM | Kd [25, 41]: ≥ 20000 nM

Sequence: ALIFILLTAV
Kd [1, 42]: 13.2 nM | Kd [2, 42]: ≥ 39400 nM | Kd [26, 42]: 56.8 nM | Kd [3, 42]: 0.498 nM

Sequence: QIMEVTARW
Kd [27, 36]: 56.3 nM | Kd [4, 36]: 18.6 nM

Sequence: DLAQDPMLI
Kd [10, 43]: ≥ 20000 nM | Kd [11, 43]: ≥ 20000 nM | Kd [12, 43]: ≥ 20000 nM | Kd [28, 43]: ≥ 20000 nM | Kd [13, 43]: ≥ 20000 nM | Kd [14, 43]: ≥ 20000 nM | Kd [15, 43]: ≥ 20000 nM | Kd [16, 43]: ≥ 20000 nM | Kd [17, 43]: ≥ 20000 nM | Kd [18, 43]: ≥ 20000 nM | Kd [19, 43]: ≥ 20000 nM | Kd [29, 43]: ≥ 20000 nM | Kd [21, 43]: ≥ 20000 nM | Kd [30, 43]: ≥ 20000 nM | Kd [22, 43]: ≥ 20000 nM | Kd [23, 43]: ≥ 20000 nM | Kd [24, 43]: ≥ 20000 nM | Kd [25, 43]: 397 nM | Kd [31, 43]: ≥ 20000 nM

Sequence: FLFLMSGKGI
Kd [1, 42]: 11.5 nM | Kd [2, 42]: 1320 nM | Kd [3, 42]: 39.6 nM | Kd [32]: 5580 nM

Sequence: VTFGARASF
Kd [11, 44]: ≥ 20000 nM | Kd [12, 44]: ≥ 20000 nM | Kd [13, 44]: ≥ 20000 nM | Kd [14, 44]: ≥ 20000 nM | Kd [16, 44]: ≥ 20000 nM | Kd [17, 44]: ≥ 20000 nM | Kd [18, 44]: 97.4 nM | Kd [19, 44]: ≥ 20000 nM | Kd [21, 44]: ≥ 20000 nM | Kd [22, 44]: ≥ 20000 nM | Kd [23, 44]: ≥ 20000 nM | Kd [25, 44]: ≥ 20000 nM

Sequence: NPITLTAAL
Kd [33, 42]: 69.6 nM | Kd [6, 42]: 25.2 nM | Kd [7, 42]: 377 nM | Kd ([5]; source organism: dengue virus type 2): ≥ 20000 nM

Sequence: ALWDVPSPA
Kd [1, 37]: 16.8 nM | Kd [2, 37]: 885 nM | Kd [3, 37]: 2.72 nM

Sequence: TEWPQLKVA
Kd [10, 45]: ≥ 20000 nM | Kd [11, 45]: ≥ 20000 nM | Kd [12, 45]: ≥ 20000 nM | Kd [13, 45]: ≥ 20000 nM | Kd [14, 45]: ≥ 20000 nM | Kd [15, 45]: 33.6 nM | Kd [16, 45]: ≥ 20000 nM | Kd [17, 45]: ≥ 20000 nM | Kd [18, 45]: ≥ 20000 nM | Kd [19, 45]: ≥ 20000 nM | Kd [20, 45]: ≥ 20000 nM | Kd [29, 45]: ≥ 20000 nM | Kd [21, 45]: ≥ 20000 nM | Kd [30, 45]: ≥ 20000 nM | Kd [22, 45]: ≥ 20000 nM | Kd [23, 45]: ≥ 20000 nM | Kd [24, 45]: ≥ 20000 nM | Kd [25, 45]: ≥ 20000 nM | Kd [31, 45]: ≥ 20000 nM

Sequence: CLWPKTHTL
Kd [2, 37]: 251 nM | Kd [33, 37]: 5.74 nM | Kd [3, 37]: 13.8 nM

Sequence: MLDVDLHPA
Kd [2, 46]: 19800 nM | Kd [26, 46]: 18 nM | Kd [3, 46]: 75.2 nM

Kd [10, 47]: ≥ 20000 nM | Kd [11, 47]: ≥ 20000 nM | Kd [12, 47]: ≥ 20000 nM | Kd [28, 47]: ≥ 20000 nM | Kd [13, 47]: ≥ 20000 nM | Kd [14, 47]: ≥ 20000 nM | Kd [15, 47]: ≥ 20000 nM | Kd [16, 47]: ≥ 20000 nM | Kd [17, 47]: ≥ 20000 nM | Kd [18, 47]: ≥ 20000 nM | Kd [19, 47]: 1270 nM | Kd [20, 47]: ≥ 20000 nM | Kd [29, 47]: ≥ 20000 nM | Kd [21, 47]: ≥ 20000 nM | Kd [30, 47]: ≥ 20000 nM | Kd [22, 47]: ≥ 20000 nM | Kd [23, 47]: ≥ 20000 nM | Kd [24, 47]: ≥ 20000 nM | Kd [25, 47]: ≥ 20000 nM | Kd [31, 47]: ≥ 20000 nM
Sequence: GSGDDTWLI

Sequence: LMLLALIAV
Kd [2, 36]: 553 nM | Kd [26, 35]: 8.08 nM | Kd [3, 36]: 23.3 nM

Sequence: LMLVALLGA
Kd [2, 37]: 2920 nM | Kd [3, 37]: 10400 nM

Sequence: IASAIVLEF
Kd [4, 39]: 2.88 nM | Kd [6, 39]: 8.89 nM | Kd [7, 39]: 7.65 nM

Sequence: MIAGVLFTFV
Kd [1, 48]: 1.85 nM | Kd [2, 49]: 423 nM | Kd [34]: 1.75 nM | Kd [26, 48]: 2.44 nM | Kd [3, 49]: 10.7 nM

Sequence: LLRQHWLSL
Kd [8, 50]: 13 nM | Kd ([9]; source organism: Vibrio cholerae O395): 49 nM | Kd [5, 50]: ≥ 20000 nM

Sequence: RTVFFVLMM
Kd [27, 37]: ≥ 51300 nM | Kd [4, 37]: 635 nM

Sequence: YLDVDLHPA
Kd [2, 49]: 1890 nM | Kd [26, 39]: 37.2 nM | Kd [3, 49]: 4.42 nM

Sequence: RVIDSRKSV
Kd [5, 38]: 1600 nM
